{"source": "paper PMC9204233", "about": "“Characterization of Catechol-1,2-Dioxygenase (Acdo1p) From Blastobotrys raffinosifermentans and Investigation of Its Role in the Catabolism of Aromatic Compounds” (Frontiers in Microbiology, 2022)", "key": {"[1]": {"target": "T1, Acdo1-6hp (Acdo1p, catechol-1,2-dioxygenase) (Blastobotrys raffinosifermentans, UniProt A0A060T9I8)", "T1 construct": "expressed in B. raffinosifermentans G1212, HisTrap purified", "T1 sequence (A0A060T9I8 1-334 limits assumed)": "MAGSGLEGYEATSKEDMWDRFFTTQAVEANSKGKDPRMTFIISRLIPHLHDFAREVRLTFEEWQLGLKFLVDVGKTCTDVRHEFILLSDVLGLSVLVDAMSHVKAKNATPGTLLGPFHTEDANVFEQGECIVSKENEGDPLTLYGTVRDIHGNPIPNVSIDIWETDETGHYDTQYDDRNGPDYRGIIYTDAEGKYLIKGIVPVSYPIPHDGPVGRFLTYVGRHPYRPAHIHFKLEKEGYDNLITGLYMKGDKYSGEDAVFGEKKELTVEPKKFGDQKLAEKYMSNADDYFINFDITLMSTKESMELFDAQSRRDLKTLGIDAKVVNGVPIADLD", "experiment": "spectrophotometric, 2-hydroxymuconic acid formation at […] nm", "type": "biochemical", "settings": "50 mM Tris-HCl pH 7.5, ~20 °C"}, "[2]": {"tested_on": "Oc1ccc(O)c(O)c1", "experiment": "purified protein", "settings": "pH 7.5, 20 °C"}, "[3]": {"tested_on": "Oc1ccccc1O", "experiment": "purified protein", "settings": "50 mM Tris-HCl pH 7.5, ~20 °C"}, "[4]": {"target": "Blastobotrys raffinosifermentans catechol-1,2-dioxygenase with C-terminal 6His-tag (Acdo1-6hp) (Blastobotrys raffinosifermentans LS3)", "experiment": "SEC; gel filtration on Superdex 200; 50 mM Tris (pH 8), 0.15 M NaCl; flow 1 mL/min; mass against a calibration curve (blue dextran, ferritin, catalase, bovine albumin, RNAse A, vitamin B12); 'indicative' molecular mass"}}, "data": [{"molecule": "Oc1cccc(O)c1O", "note": "[pyrogallol]", "values": [{"measurement": "Km", "setting": "[1]", "value": "100 ± 20", "unit": "µM"}]}, {"molecule": "Acdo1-6hp (Acdo1p, catechol-1,2-dioxygenase) (Blastobotrys raffinosifermentans)", "values": [{"measurement": "Km", "setting": "[2]", "value": "8 ± 2", "unit": "µM"}, {"measurement": "kcat", "setting": "[2]", "value": "17 ± 3.5", "unit": "s⁻¹"}, {"measurement": "kcat/Km", "setting": "[2]", "value": "2.13e+06 ± 971000", "unit": "M⁻¹ s⁻¹"}, {"measurement": "Km", "setting": "[3]", "value": "4 ± 1", "unit": "µM"}, {"measurement": "kcat", "setting": "[3]", "value": "15.6 ± 0.4", "unit": "s⁻¹"}, {"measurement": "kcat/Km", "setting": "[3]", "value": "3.95e+06 ± 930000", "unit": "M⁻¹ s⁻¹"}]}, {"molecule": "Blastobotrys raffinosifermentans catechol-1,2-dioxygenase with C-terminal 6His-tag (Acdo1-6hp) (enzyme)", "values": [{"measurement": "stoichiometry N", "setting": "[4]", "value": 2}]}]}
